From the supplement of paper PMC11865577

Legend:
Assay in all cases: pull-down binding Z-score (relative to library population); higher = stronger binding
Conditions in all cases: RNA library: Library-2
[1] = test system: TO-3-N3-2 (biotin conjugate)
Procedure, shortened: (§1)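 An RNA library (1 μg) carrying a Cy5 or Cy3 end label was heat-folded in phosphate/NaCl/KCl buffer, then incubated for 60 min at 25 °C with streptavidin beads loaded with 100 pmol of biotin-conjugated small molecule. The beads were washed three times, and bound RNA was released in hot SDS and hybridised to a DNA barcode microarray for 20 h at 55.5 °C. Each binding score was derived by subtracting the signal from beads without compound, averaging the barcoded replicate probes after removing the highest and lowest, and expressing the result as a Z-score relative to the library mean and standard deviation.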

[2] = test system: TO-N3-2 (biotin conjugate)
Procedure, shortened: as §1

[3] = test system: TO-N3 (biotin conjugate)
Procedure, shortened: as §1

[4] = test system: TO-3-N3 (biotin conjugate)
Procedure, shortened: as §1

Sequence	pull-down binding Z-score [1]	pull-down binding Z-score [2]	pull-down binding Z-score [3]	pull-down binding Z-score [4]
GUGCCCAAAAUACGUCAGGAGUGC [IAV_invivo_HA_4_Motif_13+IAV_invivo_HA_4_Motif_13]	0.129	0.402	0.0361	-0.325
GUGCCUGGAAUAUUGGUGAACAGAAAUCAAUACUGAGUCCUCUUUAUGCAUUUGCAUCAGAGGCUGCUCGUGUUGUACGAUCAAUUUUCUCCCGCAC [SHAPE_invivo_SARS-CoV-2_Motif_37]	-0.0608	0.225	-0.115	-0.254
GUGCGGCACAGGCACUAGUACUGAUGUCGUAU [SHAPE_invitro_SARS-CoV-2_Motif_246]	0.0228	0.326	0.568	0.297
GUGCGUAUAAAGAUUGUACAAAUGUUAAGUGACACACUUAAAAAUCUCUCUGACAGAGUCGUAUUUGUCUUAUGGGCAC [DMSMaPseq_invitro_SARS-CoV-2_Multi_54_ComplexLevel_1]	-0.29	-0.644	-0.833	-1.04
GUGCUAAGCAC	-0.435	-1.24	-0.59	-0.151
GUGCUAAUGACCCUGUGGGUUUUACAC [SHAPE_invivo_SARS-CoV-2_Motif_252]	-0.275	-0.465	0.0247	0.178
GUGCUUGGGACAUUUGAUACCGCAC [IAV_invivo_PB2_1_Motif_30+IAV_invivo_PB2_1_Motif_30]	-0.147	0.571	-0.171	-0.258
GUGGAUGGUUAUGUUCAC	-0.266	-0.628	-0.236	0.0943
GUGGCACUGAGAAUUUGACUAAAGAAGGUGCCAC	0.147	0.38	0.595	0.452
GUGGCCCUGAUGGCUAC	-0.622	-0.0973	-0.412	-0.362
GUGGCUAAAUCUGAAUUUGACCGUGAUGCAGCCAU [DMSMaPseq_invitro_SARS-CoV-2_Motif_214]	-0.199	-0.12	-0.504	-0.576
GUGGGGUAUUCAUCACCCGC [IAV_invivo_HA_4_Motif_9+IAV_invivo_HA_4_Motif_9]	0.689	0.897	1.62	1.69
GUGGUAGUUAUACUAAUGACAAAGCUUGCCCAUUGAUUGCUGC [DMSMaPseq_invitro_SARS-CoV-2_Motif_161]	0.207	0.208	0.498	0.409
GUGGUGAGACACUUGGUGUCCUUGUCCCUCAUGUGGGCGAAAUACCAGUGGCUUACCGC	-0.0757	0.812	0.798	0.769
GUGGUUAUACCUACUAAAAAGGCUGGUGGCACUACUGAAAUGCUAGCGAAAGCUUUGAGAAAAGUGCCAACAGACAAUUAUAUAACCAC	0.156	0.179	-0.353	-0.608
GUGGUUGACCUACACAGGUGCCAU	-0.562	0.102	-0.612	-0.678
GUGUAAAAGUGCCUUUUACAU	-0.646	-0.872	-0.957	-0.525
